Assay results as given in the supplement of paper PMC10724198.
± gives the standard deviation of the averaged measurements.

System: Saccharomyces cerevisiae
Experiment: protein stability index of tFT-peptide fusion (C-terminal peptide) (PSI (0-1 scale)); higher = more stable (slower turnover)
Details: genetic background: wild type; temperature: 30 C
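Further: PSI is a weighted mean of sequencing reads over stability bins, variants kept only with over 10 reads, mCherry proximal and sfGFP distal, peptide attached via GGGS linker.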

Row | Sequence | protein stability index
1 | SGVGSRDGVRGA | 0.684 ± 0.048
2 | SGYCCDGCKGSY | 0.6461 ± 0.0028
3 | SHAATKGSLFNV | 0.631 ± 0.0074
4 | SHEARMVCGSSV | 0.63331 ± 0.00024
5 | SHLLPPPLTPAS | 0.673 ± 0.031
6 | SHLMETPACSAP | 0.915 ± 0.082
7 | SHPLTLPSLLPP | 0.717 ± 0.045
8 | SHRRLPPSRFYR | 0.7 ± 0.081
9 | SHSTNNHKLTPR | 0.677 ± 0.082
10 | SHSTPAFPLPPP | 0.638 ± 0.068
11 | SHVDRVVFWYLL | 0.529 ± 0.033
12 | SHVLPHPGLSPP | 0.655 ± 0.061
13 | SHVMLCLHFLFR | 0.498 ± 0.018
14 | SHVVDAPYRSEG | 0.66601 ± 0.00013
15 | SINLLFHSFFFL | 0.608 ± 0.047
16 | SIPAPLAPLWGL | 0.627 ± 0.055
17 | SIPVPFSFPLFI | 0.598 ± 0.0065
18 | SIQVFDTYIITD | 0.697 ± 0.068
19 | SIRGLRTLKFLG | 0.6739 ± 0.0049
20 | SIRNNMKRVRKN | 0.631 ± 0.022
21 | SISFPPPPRSLT | 0.719 ± 0.08
22 | SIWLLSGGQCFL | 0.684 ± 0.027
23 | SKERLKSEKMKK | 0.745 ± 0.059

Row | Sequence | protein stability index
24 | SKGQLRLNMCIL | 0.662 ± 0.046
25 | SKKKKNLQIPKK | 0.734 ± 0.12
26 | SKKTSRSKVHTS | 0.685 ± 0.069
27 | SLALSSPLPPPP | 0.735 ± 0.042
28 | SLALVATWCGYR | 0.688 ± 0.052
29 | SLASWLCVFSWD | 0.673 ± 0.027
30 | SLCTFSFLRFGF | 0.738 ± 0.015
31 | SLCTSVPEPPFS | 0.687 ± 0.0072
32 | SLDLSQPMPWYH | 0.711 ± 0.051
33 | SLDQGSSSLFIM | 0.731 ± 0.082
34 | SLEFISIAFLDL | 0.685 ± 0.042
35 | SLEQRPLQRPPS | 0.6941 ± 0.0063
36 | SLFALPLPPPAQ | 0.695 ± 0.025
37 | SLFFPLPLSSLF | 0.736 ± 0.07
38 | SLFHTSLAYSFF | 0.7143 ± 0.0066
39 | SLFLSRRSLYRV | 0.738 ± 0.034
40 | SLFLVLSLAQLL | 0.579 ± 0.066
41 | SLFPAGWAGFSD | 0.73 ± 0.011
42 | SLFRGHLLPPRP | 0.688 ± 0.036
43 | SLIPLLPPRSLS | 0.594 ± 0.1
44 | SLKIHIKQIEKK | 0.766 ± 0.022
45 | SLLILMYHIAPF | 0.53 ± 0.03
46 | SLLLPPRPPCPP | 0.737 ± 0.024

Row | Sequence | protein stability index
47 | SLLLRVLCGRLS | 0.5104 ± 0.0037
48 | SLLPHAHAPSPL | 0.673 ± 0.014
49 | SLLPHSPLLPPP | 0.694 ± 0.0031
50 | SLLPQSAGRRPH | 0.666 ± 0.063
51 | SLLPRLTPHSPI | 0.75 ± 0.051
52 | SLLSTPPPLASP | 0.669 ± 0.039
53 | SLPALPPLGLFS | 0.71 ± 0.017
54 | SLPCPISPPSFL | 0.697 ± 0.018
55 | SLPLHFISGFYV | 0.6586 ± 0.0043
56 | SLPLPPCLSPLQ | 0.723 ± 0.054
57 | SLPLPVFSFPCS | 0.653 ± 0.00069
58 | SLPLSSALFPPL | 0.72 ± 0.076
59 | SLPPALPLPLSH | 0.64 ± 0.06
60 | SLPPPPCLPPLT | 0.675 ± 0.044
61 | SLPPSFPPPFLF | 0.7355 ± 0.001
62 | SLRNGESTGLCF | 0.743 ± 0.098
63 | SLRPALSFLPLP | 0.716 ± 0.054
64 | SLSCDITRFVEY | 0.712 ± 0.19
65 | SLSHSPSPPPPT | 0.638 ± 0.0084
66 | SLSPWRLPIGGW | 0.708 ± 0.033
67 | SLSSAPPIPPTL | 0.697 ± 0.011
68 | SLSSRSVSLFKF | 0.806 ± 0.13
69 | SLSTAEAHGRRS | 0.72 ± 0.082

Row | Sequence | protein stability index
70 | SLSTLVFSFCVL | 0.517 ± 0.03
71 | SLSVRTIFTSRS | 0.71 ± 0.071
72 | SLTEAVHWDRIS | 0.67 ± 0.032
73 | SLTLAHPGVDLA | 0.709 ± 0.021
74 | SLTTPGMSQAYY | 0.703 ± 0.034
75 | SLVSTSRALFAQ | 0.659 ± 0.019
76 | SLVSWAGLLFWG | 0.727 ± 0.058
77 | SLWVLPGPVVLG | 0.621 ± 0.039
78 | SLWVSLSCFRVV | 0.588 ± 0.028
79 | SMAPDIQLYTAS | 0.68901 ± 0.0006
80 | SMEVRGLKVRSC | 0.617 ± 0.015
81 | SMFFNSIDATRW | 0.721 ± 0.053
82 | SMGLYRDVVSGH | 0.665 ± 0.029
83 | SMKAYRTLKTRL | 0.636 ± 0.075
84 | SMWNFPRLAKTR | 0.685 ± 0.018
85 | SNACHTTFGDPI | 0.719 ± 0.0078
86 | SNAFWVRPFKIG | 0.667 ± 0.013
87 | SNCLKHAYTTRT | 0.6604 ± 0.0056
88 | SNTVSRAPFLLA | 0.681 ± 0.15
89 | SNWGLYGCRLYP | 0.759 ± 0.073
90 | SPAASPSRPPPI | 0.648 ± 0.025
91 | SPAGQRPQVPVS | 0.667 ± 0.075
92 | SPALPPPAPRLL | 0.719 ± 0.061

Row | Sequence | protein stability index
93 | SPALSPCLRTGY | 0.717 ± 0.062
94 | SPAPQLFLPPPV | 0.665 ± 0.052
95 | SPCLLTLPVPFL | 0.695 ± 0.017
96 | SPCLTRSALPSP | 0.687 ± 0.038
97 | SPCVPTPSRPAS | 0.685 ± 0.079
98 | SPDFSVITKSYL | 0.764 ± 0.032
99 | SPDGVEILPIRG | 0.684 ± 0.017
100 | SPEFIQAIQNPV | 0.724 ± 0.049
101 | SPEVIHVVFCDL | 0.697 ± 0.043
102 | SPFEASSPQVLT | 0.644 ± 0.0094
103 | SPFLSLPHPSFP | 0.6053 ± 0.0013
104 | SPFRATPYPLLP | 0.6909 ± 0.0031
105 | SPGDVVVAVGGG | 0.6669 ± 0.0037
106 | SPGLYGPLSRGM | 0.684 ± 0.063
107 | SPGNLPMSSSLL | 0.686 ± 0.022
108 | SPGSVIVSASLL | 0.651 ± 0.039
109 | SPHPPPPPSPPP | 0.723 ± 0.059
110 | SPISFIHPHISG | 0.644 ± 0.017
111 | SPLDSPPLSSPP | 0.659 ± 0.028
112 | SPLEFPLLPSGV | 0.7 ± 0.064
113 | SPLLPPPPSPPL | 0.633 ± 0.081
114 | SPLPPPLCPPPL | 0.608 ± 0.034
115 | SPLPPPPRPPLP | 0.691 ± 0.039

Row | Sequence | protein stability index
116 | SPLPPSRSVHCA | 0.748 ± 0.072
117 | SPLPRLPPGPLP | 0.68 ± 0.03
118 | SPLSLSFLLLCL | 0.524 ± 0.028
119 | SPLSPAVPSTAL | 0.742 ± 0.056
120 | SPLSPPHRHNTT | 0.701 ± 0.017
121 | SPLTCKSLRAQR | 0.738 ± 0.022
122 | SPPGTCPTIRPS | 0.664 ± 0.014
123 | SPPLLLPNLCPC | 0.543 ± 0.023
124 | SPPLPPPPPFPL | 0.74 ± 0.053
125 | SPPLPPTPPVTT | 0.705 ± 0.19
126 | SPPLSFPTLQLF | 0.625 ± 0.15
127 | SPPLTLPPYPPP | 0.7149 ± 0.0031
128 | SPPPALPPPRPL | 0.749 ± 0.031
129 | SPPPASDHPNPL | 0.648 ± 0.063
130 | SPPPPPAPHPCP | 0.686 ± 0.03
131 | SPPPPPLPPSPR | 0.713 ± 0.0078
132 | SPPPPPPRPPPP | 0.691 ± 0.015
133 | SPPPPPPRSPPL | 0.606 ± 0.0074
134 | SPPPPPVHPSSP | 0.722 ± 0.019
135 | SPPPPYPSLFPL | 0.677 ± 0.034
136 | SPPPTPLPPPPP | 0.628 ± 0.094
137 | SPPQTETGAQRP | 0.666 ± 0.051
138 | SPPRAGTPTSRP | 0.667 ± 0.097

Row | Sequence | protein stability index
139 | SPPRPPRPRYLF | 0.6947 ± 0.0062
140 | SPPSPGLDPVCP | 0.66 ± 0.089
141 | SPPSRLRPAILP | 0.668 ± 0.032
142 | SPPTCPNQLGPP | 0.7 ± 0.074
143 | SPPVPPLPAPAT | 0.539 ± 0.012
144 | SPPYPPPPVAST | 0.707 ± 0.013
145 | SPQFLLPRALSP | 0.695 ± 0.0042
146 | SPRFSPPAILHN | 0.71 ± 0.0091
147 | SPRKTAVIGGTT | 0.688 ± 0.034
148 | SPRLPAPPPPPQ | 0.702 ± 0.075
149 | SPRLPPSPPPDL | 0.628 ± 0.023
150 | SPRLRSRQVALS | 0.556 ± 0.17
151 | SPRLSAPPPPPP | 0.6766 ± 0.0046
152 | SPSLPSLNRCSL | 0.769 ± 0.016
153 | SPSPLPLSPSPL | 0.749 ± 0.086
154 | SPSPPSFRPSLH | 0.712 ± 0.12
155 | SPSPPSNPLPSP | 0.701 ± 0.024
156 | SPSPSSLPPPLR | 0.726 ± 0.052
157 | SPSRPQPPPLSA | 0.738 ± 0.061
158 | SPSSPPSKCLSL | 0.688 ± 0.039
159 | SPSSSPSPFPVP | 0.731 ± 0.063
160 | SPSVRSPFSLPP | 0.7383 ± 0.0052
